The record followed here is the supplement of paper PMC5998384.

The test system of data set [1] is HeLa Kyoto. As to the kind of experiment: solubility in G1/S (NP-40 vs SDS abundance) (log2 ratio); higher = more soluble. As to conditions: cell cycle stage: G1/S.
Data set [2] deals with HeLa Kyoto. Description: melting temperature (median over replicates), in situ; higher = more thermally stable.
In data set [3] the test system is HeLa Kyoto. As to the kind of experiment: solubility change mitosis vs G1/S (difference of NP-40 vs SDS log2 ratios) (log2 ratio difference); higher = more soluble in mitosis.
Data set [4] concerns HeLa Kyoto. Description: thermal stability score vs G1/S (z-score of summed log2 fold changes over temperatures); higher = more thermally stable than in G1/S.
Setting [5] is: cell cycle stage: early G1 (4.5 h after nocodazole release).
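Throughout, for melting temperature (median over replicates), in situ: HeLa Kyoto cells synchronized by double thymidine or nocodazole block, proteins quantified by TMT10plex mass spectrometry, three independent biological replicates.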
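Throughout, for solubility change mitosis vs G1/S (difference of NP-40 vs SDS log2 ratios): synchronized HeLa Kyoto cells (double thymidine block for G1/S, nocodazole release for mitosis), protein amounts in NP-40 versus SDS lysates quantified by mass spectrometry, three biological replicates.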
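Throughout, for solubility in G1/S (NP-40 vs SDS abundance): HeLa Kyoto cells arrested at G1/S by double thymidine block, proteins quantified by TMT10plex mass spectrometry in mild NP-40 versus SDS extracts, three biological replicates.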
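Throughout, for thermal stability score vs G1/S (z-score of summed log2 fold changes over temperatures): synchronized HeLa Kyoto cells, proteins quantified by TMT10plex mass spectrometry, three biological replicates, mitosis taken 0.5 h after nocodazole release, G1/S directly after double thymidine block.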

“MGLAGVCALRRSAGYILVGGAGGQSAAAAARRYSEGEWASGGVRSFSRAAAAMAPIKVGDAIPAVEVFEGEPGNKVNLAELFKGKKGVLFGVPGAFTPGCSKTHLPGFVEQAEALKAKGVQVVACLSVNDAFVTGEWGRAHKAEGKVRLLADPTGAFGKETDLLLDDSLVSIFGNRRLKRFSMVVQDGIVKALNVEPDGTGLTCSLAPNIISQL [PRDX5]”: the “solubility in G1/S (log2)” value with HeLa Kyoto [1] is 0.582. Also, the melting temperature in the data set on HeLa Kyoto [2] (cell cycle stage: G1/S) and with HeLa Kyoto [2] (cell cycle stage: mitosis) was 55.9 °C throughout. Further, the “solubility change mitosis (log2)” value in the data set with HeLa Kyoto [3] amounted to 0.124. Besides, the thermal stability score is -1.13 in the data set with HeLa Kyoto [4] (setting [5]) and -2.67 in the data set on HeLa Kyoto [4] (cell cycle stage: mitosis).
“MGLETEKADVQLFMDDDSYSHHSGLEYADPEKFADSDQDRDPHRLNSHLKLGFEDVIAEPVTTHSFDKVWICSHALFEISKYVMYKFLTVFLAIPLAFIAGILFATLSCLHIWILMPFVKTCLMVLPSVQTIWKSVTDVIIAPLCTSVGRCFSSVSLQLSQD [CAV2]”: in the data set with HeLa Kyoto [1], the “solubility in G1/S (log2)” value was -0.178. The melting temperature in the data set with HeLa Kyoto [2] (cell cycle stage: G1/S) turned out to be 56.1 °C; in the data set on HeLa Kyoto [2] (cell cycle stage: mitosis), 56.9 °C. Moreover, the “solubility change mitosis (log2)” value with HeLa Kyoto [3] was -0.0267. Further, the thermal stability score in the data set with HeLa Kyoto [4] (setting [5]) was -1.45; with HeLa Kyoto [4] (cell cycle stage: mitosis) it was -2.03.
Regarding “MGLPEPGPLRLLALLLLLLLLLLLQLQHLAAAAADPLLGGQGPAKDCEKDQFQCRNERCIPSVWRCDEDDDCLDHSDEDDCPKKTCADSDFTCDNGHCIHERWKCDGEEECPDGSDESEATCTKQVCPAEKLSCGPTSHKCVPASWRCDGEKDCEGGADEAGCATLCAPHEFQCGNRSCLAAVFVCDGDDDCGDGSDERGCADPACGPREFRCGGDGGGACIPERWVCDRQFDCEDRSDEAAELCGRPGPGATSAPAACATASQFACRSGECVHLGWRCDGDRDCKDKSDEADCPLGTCRGDEFQCGDGTCVLAIKHCNQEQDCPDGSDEAGCLQGLNECLHNNGGCSHICTDLKIGFECTCPAGFQLLDQKTCGDIDECKDPDACSQICVNYKGYFKCECYPGYEMDLLTKNCKAAAGKSPSLIFTNRHEVRRIDLVKRNYSRLIPMLKNVVALDVEVATNRIYWCDLSYRKIYSAYMDKASDPKEQEVLIDEQLHSPEGLAVDWVHKHIYWTDSGNKTISVATVDGGRRRTLFSRNLSEPRAIAVDPLRGFMYWSDWGDQAKIEKSGLNGVDRQTLVSDNIEWPNGITLDLLSQRLYWVDSKLHQLSSIDFSGGNRKTLISSTDFLSHPFGIAVFEDKVFWTDLENEAIFSANRLNGLEISILAENLNNPHDIVIFHELKQPRAPDACELSVQPNGGCEYLCLPAPQISSHSPKYTCACPDTMWLGPDMKRCYRAPQSTSTTTLASTMTRTVPATTRAPGTTVHRSTYQNHSTETPSLTAAVPSSVSVPRAPSISPSTLSPATSNHSQHYANEDSKMGSTVTAAVIGIIVPIVVIALLCMSGYLIWRNWKRKNTKSMNFDNPVYRKTTEEEDEDELHIGRTAQIGHVYPAAISSFDRPLWAEPCLGETREPEDPAPALKELFVLPGEPRSQLHQLPKNPLSELPVVKSKRVALSLEDDGLP [LRP8]”, the “solubility in G1/S (log2)” value with HeLa Kyoto [1] stood at 0.0581. The melting temperature in the data set with HeLa Kyoto [2] (cell cycle stage: G1/S) was determined as 55.6 °C; in the data set on HeLa Kyoto [2] (cell cycle stage: mitosis), 56.7 °C. Further, the “solubility change mitosis (log2)” value in the data set with HeLa Kyoto [3] is -0.0602. In addition, the thermal stability score in the data set on HeLa Kyoto [4] (setting [5]) was -3.43; with HeLa Kyoto [4] (cell cycle stage: mitosis), -3.53.
As to “MGLTKQYLRYVASAVFGVIGSQKGNIVFVTLRGEKGRYVAVPACEHVFIWDLRKGEKILILQGLKQEVTCLCPSPDGLHLAVGYEDGSIRIFSLLSGEGNVTFNGHKAAITTLKYDQLGGRLASGSKDTDIIVWDVINESGLYRLKGHKDAITQALFLREKNLLVTSGKDTMVKWWDLDTQHCFKTMVGHRTEVWGLVLLSEEKRLITGASDSELRVWDIAYLQEIEDPEEPDPKKIKGSSPGIQDTLEAEDGAFETDEAPEDRILSCRKAGSIMREGRDRVVNLAVDKTGRILACHGTDSVLELFCILSKKEIQKKMDKKMKKARKKAKLHSSKGEEEDPEVNVEMSLQDEIQRVTNIKTSAKIKSFDLIHSPHGELKAVFLLQNNLVELYSLNPSLPTPQPVRTSRITIGGHRSDVRTLSFSSDNIAVLSAAADSIKIWNRSTLQCIRTMTCEYALCSFFVPGDRQVVIGTKTGKLQLYDLASGNLLETIDAHDGALWSMSLSPDQRGFVTGGADKSVKFWDFELVKDENSTQKRLSVKQTRTLQLDEDVLCVSYSPNQKLLAVSLLDCTVKIFYVDTLKFFLSLYGHKLPVICMDISHDGALIATGSADRNVKIWGLDFGDCHKSLFAHDDSVMYLQFVPKSHLFFTAGKDHKIKQWDADKFEHIQTLEGHHQEIWCLAVSPSGDYVVSSSHDKSLRLWERTREPLILEEEREMEREAEYEESVAKEDQPAVPGETQGDSYFTGKKTIETVKAAERIMEAIELYREETAKMKEHKAICKAAGKEVPLPSNPILMAYGSISPSAYVLEIFKGIKSSELEESLLVLPFSYVPDILKLFNEFIQLGSDVELICRCLFFLLRIHFGQITSNQMLVPVIEKLRETTISKVSQVRDVIGFNMAGLDYLKRECEAKSEVMFFADATSHLEEKKRKRKKREKLILTLT [WDR3]”, the “solubility in G1/S (log2)” value with HeLa Kyoto [1] was -1.64. Further, the figures for the melting temperature in the data set on HeLa Kyoto [2] (cell cycle stage: G1/S) and in the data set with HeLa Kyoto [2] (cell cycle stage: mitosis) were 50.2 °C and 50.9 °C, respectively. Further, the “solubility change mitosis (log2)” value in the data set on HeLa Kyoto [3] was found to be 0.614. For the same sequence, the thermal stability score with HeLa Kyoto [4] (setting [5]) came to 2.25; with HeLa Kyoto [4] (cell cycle stage: mitosis), 3.44.
On to “MGNSALRAHVETAQKTGVFQLKDRGLTEFPADLQKLTSNLRTIDLSNNKIESLPPLLIGKFTLLKSLSLNNNKLTVLPDEICNLKKLETLSLNNNHLRELPSTFGQLSALKTLSLSGNQLGALPPQLCSLRHLDVMDLSKNQIRSIPDSVGELQVIELNLNQNQISQISVKISCCPRLKILRLEENCLELSMLPQSILSDSQICLLAVEGNLFEIKKLRELEGYDKYMERFTATKKKFA [LRRC57]”, for which the “solubility in G1/S (log2)” value with HeLa Kyoto [1] stood at 0.266. The melting temperature in the data set on HeLa Kyoto [2] (cell cycle stage: G1/S) was 53.2 °C; in the data set on HeLa Kyoto [2] (cell cycle stage: mitosis), 53.6 °C. Moreover, the “solubility change mitosis (log2)” value in the data set on HeLa Kyoto [3] was found to be 0.00239. For the same sequence, the thermal stability score with HeLa Kyoto [4] (setting [5]) is -0.373; in the data set with HeLa Kyoto [4] (cell cycle stage: mitosis), -0.56.
